From US4532212A, “Process for the dissolution of peptides in non-aqueous and mixed non-aqueous/aqueous systems” (Shell Oil Company, priority 1983, dated 1985)
Entries after “also recorded” stand apart in the source; their conditions may differ.

How the values were obtained:
Type in all cases: physicochemical
[1] = Protein separation with crown ether/methanol: iso-electric focusing of fractions; conditions: 18-crown-6 in methanol
Description: Thus mixtures of cytochrome c and α-chymotrypsin (10 mg each, 8.1×10^-4 and 4×10^-4 m.mole, respectively) were treated with 18-crown-6 (28 mg, 0.11 m.mole) in methanol (2 ml). The red solution was filtered from undissolved protein (α-chymotrypsin) and dialysed against water, then buffer (Tris, pH 7.5, 0.10 M). Both filtrate and filtered protein fractions were examined using isoelectric focusing in order to establish the purity of the separations (results shown in Table 2).
Mixtures of cytochrome c, BSA and α-chymotrypsin (10 mg each, 8,1×10^-4, 1.4×10^-4 and 4×10^-4 m.mole respectively) were treated with 18-crown-6 (50 mg, 0.19 m.mole) in methanol (2 ml) and the resulting red solution was filtered and then dialysed against water then buffer (Tris, pH 7.5, 0.01 M) to remove crown ether and methanol.

[2] = Protein crystallisation from methanol/18-crown-6/(NH4)2SO4; conditions: crystalline composite from methanol/18-crown-6/(NH4)2SO4
Description: The solubilised protein solutions were stored at 4° C. within an outer tube containing ethyl acetate as precipitating co-solvent.

[3] = Dissolution of peptides/proteins in organic solvents using crown ethers and cryptands; conditions: in words
Description: ^(a) Protein concentration was in the range 0.05-0.8 mM depending on
protein (i.e. cytochrome c, concentration was 0.8 mM, whereas, myoglobin
concentrtion was 0.1 mM). In a typical experiment, small portions of CE
(ca 2.0 mg, 7.6 × 10^-3 mmoles) were added to a suspension of
protein/peptide (5 mg) in methanol (2 ml) at 4-25° C. with stirrin
until the suspension dissolved.

[4] = mixture cytochrome c + BSA + α-chymotrypsin

| Substance | Iso-electric focusing results, pHI [1, 4] | Iso-electric focusing results, pHI ([1]; mixture cytochrome c + α-chymotrypsin) | Circular dichroism / UV/visible spectroscopy of crystalline material (protein integrity) [2] | Solubility in methanol with crown ether [3] |
| --- | --- | --- | --- | --- |
| Bovine serum albumin (BSA): bovine serum albumin, 513 amino acid residues as printed | 5.5-6.0 |  |  |  |
| Cytochrome c: Cytochrome c from horse heart (Type III, from Sigma Chemical Co.), 104 residues | 9.35 | 9.35 | intact protein present | readily dissolves; also recorded: dissolves in methanol at a lower crown ether concentration than BSA |
